Experimental data: the DeepSol protein solubility set

Test: soluble on expression in E. coli; label from the status in PepcDB or PDB records

Row | Sequence | soluble on expression in E. coli
1 | MLGGSLYQVYAIKEAVKMGYYVITCDYLPNNPGHQYAHEYYNVSTTDKEAVYELAKRLQVDGVVAYASDPAAPTAAYVCEKLGLPTSPYTSVEILSQKDLFRRYLAEHNFNVPKYVGCSSYTEALEQIKNLTLPVMIKPVDSSGSKGINKLTNVDQLKDFIEDALSYSREKRIIIEEFIEKDGYQISGDAFSVDGILKFHCFGNEYYSSSVVKDFAPLGECWPFQMKPEIITELEKDIQRLISELKMGTTAYNVEAILGKNGKLYILELGARSGGSLIPQITELATGVNMVKYVIKAALGEDCSEIEMSPARGYWSNYMLHSKQTGRFKEISFDENFAKNNLVDCVTELKSGDNVHAFRDAGDALGTLILKYSSKEEMFNVIENMDQFVHIIID | not soluble
2 | MAVELRYDEEAVFLRRVNRFVVEVKSSRGVVRCHLMDTGRIDHLASPGRRGVLIAWLNRLGGKTVCRAQAFKTAGGVVAVVDSRVPNRLFAEAAPMVVGGDASIEAEREVFGSRLDFLISTGRGLWAVEVKGVNLSLDGVGLFPNAPSARAVKHLEVLARLAREGVKPLMAFVALRPDIRVFAPNYRVDRRFASLACTLLRRGLVGMVGIRVSIDLEPGVVRIRPVATAPVQCPPLQPGR | soluble
3 | SLTGAVDKLTLIHYNDVYNIDANSKSEPIGGAARFCTAVRSFSHLNPLVLFSGDAFSPSMLSTFTKGEQMIPVLNTVGTHCAVFGNHDFDHGLDILNEWVEKTNFPWLMSNVVDNETGRPLGGGKITHIMHHNEVKVGLIGLVEKEWLDTLPTIDPNEVTYIDFIKAGNQLADELHNQGCDIIIALTHMRTPNDIELAKHSGHIDLILGGHDHVYEILNIDDTHVIKSGTDFRQFSKIGISLNRNQNGKININVEKVDVNSTKYSEDSELKNELKKYSETIESKMDEVLGTFAVELDGRFSAIRTSETNLGNWICDVALAATGADCVIINSGTFRSDQIHPAGPFTMRDLINIIPMQDPLIVLEVTGKILHQALENSVSTYPKLEGRFPQIAGMSFVFDPTKKAGERVEPKLIRLGDEWLNLEQTYTLCVKSYIYGGCDGYNMFKECRVLMDDDAAPELGLAIQNHFKAIDVRLGK | soluble
4 | MAHHHHHHMRCFTPRLSAAGNGVWRGFRQMYEEYALWRDRRDDERYAAVSEEGEEGITLSNRRICANPNACPRSVLLVPADCIVEAFRRERRGGVTADAVMFDLTCCRGSRGEARDNILRFLQAEEKGEKRGEDISEGQCSHADERGRYLIRVNSPEFDSANGFLDMELAALLGERIEGVLLPAVTVNTYSLVEEYIHPSHHLWALFDTPLSVVQASEICRQGHYRYAVMGSRRLAEDLHLPIGGVTYGDTYRGENNSENATPAALLGSLPLLNSSLQVLLAARAFNMNILDDAFEDASDTAGFSRDLHLSRSLGFEGKLVINPAQLASCHAAFAPSAEELSWARGVQQRMARRYATEESAGKLEAAQWRRAACLLERHREAELQGAAPTQRGGGGGVE | not soluble
5 | MHHHHHHSSGRENLYFQGPQDLMVTCTAPVNIAVIKYWGKRDEALILPINSSLSVTLHQDQLKTTTTVAISKDFTEDRIWLNGREEDVGQPRLQACLREIRRLARKRRSTEDGDTLPLSLSYKVHVASVNNFPTAAGLASSAAGYACLAYTLAQVYGVEGDLSEVARRGSGSACRSLYGGFVEWQMGEQADGKDSIARQIAPEWHWPQLRILILVVSADKKQTGSTVGMQTSVETSTLLKFRAESVVPERMKEMTRCIQEQDFQGFAQLTMKDSNQFHATCLDTFPPISYLNDTSRRIIQLVHRFNTHHGQTKVAYTFDAGPNAVIFTLEDTVAEFVAAVRHSFPPAANGDKFLKGLQVAPVLLSDELKAALVVEPSPGGVQYIIATQVGPGPQVLDDTHDHLLGQDGLPQRDL | soluble
6 | MGSDKIHHHHHHMNSDIIVADFWKNNEEILTDFDKDSFCESWTENEMWSIEFKVAQTPKNAHCYSFLDYESSVYFRGQEFVVKQLSHDAVGKTLSKDIRAPHIYYTCQDGRQDDAITGSFTLEQCLTHIFKTDNRGFSWEIIDPSNILEKVQQENFGNNNYLTLIDQLLDDYGVVVIPDNRHLVFKPREIYGAKTENFIRYKYNTDEASFDIDTLSLKTKIKGYGKVDSNGNNYFSPITYTSPEVEKWGIRWQEPVSDERYTVAGNMQRRLKLELQDYPATTGSVILKNDYECEKGDYVLFIYEPLGIDYDVQIVAYKKYPFTIKAPEITLSNNKKSIVSIMAQLAKVLKGAK | not soluble
7 | GMSTPTPDTDVEQVGLANTAFYEAMERGDFETLSSLWLTPADLGVDEEYHDPADAGVVSCVHPGWPVLSGRGEVLRSYALIMANTEYIQFFLTDVHVSVTGDTALVTCTENILSGGPPPDDSDELGPLVGQLVVATNVFRRTPDGWKLWSHHASPVLAETGAEEGDESPD | soluble
8 | MSLRVMIVDDHGTNRELCRFILAHIASHIDTFEDGQQAIDAMREMEILPDVILLDVMMPIKDGFVTAKEIRQAFVKHHIPIIFLTVLDDRDSFEKCLALGDDFILKPVERSVLIAKVQAHYRIVKMHNEGHHHHHH | not soluble
9 | MGSDKIHHHHHHVSDSPLPDSETSAAAEFKVDNCALVLEGGGLRAIYTAGVLDAFLAAGIHFQYLVGVSAGAIYPASYLSRQMGRNLTIQQNFLADKRYMGLKHLLRTGNYVNTDFTYRRMAHELVPYDFDAFASSEAEFKVGAFNCLTGETDFFGMADFADHDTFLEVLIASSSLPFISKPTFIDGTPYLDGGIGAPIPLAQAREDGYKRQVVILTQEQDYRKSAFKAKWLAKRLYRRYPKVASALLARHQVYNQALDDLTKAQADGSALVLQPATPMGLSRLERDVSKVEAVYRRGLSEGEAFIPSLLAFIENC | not soluble
10 | IGAVNYSIGANIATNKNKITNLGGSDNIIQTSSYIVKYILKKGESIGSFYGFKTDGLYTQADIDAGHYYTLSGVVPNAGDIKFVPQRDIEYKQEITDEDRTILGKDVPDFTYGVNLSLQYKGFEFSMFGQGISGTKVAFDVYGVHPFYHGQDSPRKYHLKRWTEENPNPHAAYPRIYSASSVHTTYNRNFSDYHLFDSDYFRFKTLSLGYTVPSATVKNWGLQSLKVYVTGENLFTVRADKKMEDFDPETAGGVIYTLGTKSVAFGVNISF | not soluble
11 | MIVYGLYKSPFGPITVAKNEKGFVMLDFCDCAERSSLDNDYFTDFFYKLDLYFEGKKVDLTEPVDFKPFNEFRIRVFKEVMRIKWGEVRTYKQVADAVKTSPRAVGTALSKNNVLLIIPCHRVIGEKSLGGYSRGVELKRKLLELEGIDVAKFIEK | soluble
12 | MGSDKIHHHHHHMEKFKGALVVGALRLFALLPWRAVQGVGAGIGWLMWKLPNRSREVVRINLSKCFPELSETELEKLVGQSLMDIGRTLTESACAWIWPPEKSLRYIREVEGMEVLEEALASGDGLVGITSHLGNWEVLNHFYCSYAKPIIFYRPPKLKAVDELLKKQRVQLGNRVAPSTPEGILSVIKEVKKGGCVGIPADPEPARTAGLFVPYLGTTALISKFVPQLLSRGKARGVFFHAVRLPDGSGYKVILEAAPADMYDKDLEVSVAAMSRELAKYVRAYPSQYMWSMKRFKNRPDGEKKWY | not soluble
13 | MGSDKIHHHHHHMSNGGRLVSQLEAEGSTHLTLPIHKKSLSSLWQIRPLRQLIEEHQPDIVHVRSRVPAWLTHFALRKIPANKRPHLISTVHGFYSVNRYSAIMTQAEKVIAVSDSVVKYITDHYKNCPPQDIVRIYRGIDPAAFPHNYQPSAQWFNQVFNDFPELENKFLLCLPGRITRLKGHESLIELMQQLHSQYPQLHAVIVGGADVKKQAYLSELQNTIQSKGLADKITFVGHRSDIREWLAFSDIVLSLSNQAETFGRTALEALSVGTPVIGWNRGGVAEILSHVYPQGLVEAENEKALLETVKHHIEQPQTVAPVTMFSLKDMCDQTLELYQSVLN | not soluble
14 | MGLEKTVKEKLSFEGVGIHTGEYSKLIIHPEKEGTGIRFFKNGVYIPARHEFVVHTNHSTDLGFKGQRIKTVEHILSVLHLLEITNVTIEVIGNEIPILDGSGWEFYEAIRKNILNQNREIDYFVVEEPIIVEDEGRLIKAEPSDTLEVTYEGEFKNFLGRQKFTFVEGNEEEIVLARTFCFDWEIEHIKKVGLGKGGSLKNTLVLGKDKVYNPEGLRYENEPVRHKVFDLIGDLYLLGSPVKGKFYSFRGGHSLNVKLVKELAKKQKLTRDLPHLPSVQALLEHHHHHH | soluble
15 | MKKVLLIVISILFGSVLVGCQMNESNKTQDKIQSITGSVAYRERIALPDNAVVTVYLQDVSLADAPATVIAKQNFITNGMQVPLEFNLAYDSRKIKASHRYSVSARIEVDGKLRFITDTHYGVITDPEATKHVPMMLIGVHGE | not soluble
16 | MLKIGPYEFSSRLLLGTGKYPSLDVQKEAVEASGAEILTFAVRRMNIFSPEQPNFLEQLDLSKYKLLPNTAGAKTAEEAVRIARLAKASGLCDMIKVEVIGCDKTLLPDPIETLKAAEMLLEEGFIVLPYTSDDVVLAKRLEELGCHAIMPGASPIGSGQGIINPLNLSFIIEQANVPVIVDAGIGGPADAALAMELGADGVLLNTAVSGAADPVKMAKAMKLAVEAGRLGYEAGRIPKKRYASASSPTEGMSVV | not soluble
17 | KVGFKIGGGMEYGFNEIWSLQPSLFVSSKGAKKDELSVNAVYLELPVMAAARFKVADNTNIVLSAGPYFACGIAGNSKVDLGKGRLEVDTFGDDGLLKRGDVGLGIGVAAEFGKIIAGLDGQFGFVDVMDNVNGKNLNLSISVGYKF | not soluble
18 | MENEMKEKAVIFTGNSISHEDAKKILLANYQPPVRRFQLEKFIQQGYKVMGIIDGIFFDRAAVGHREIISALNAGVRVVGGASMGALRASELDTHGMIGVGKVYEWYRDGVIESDDEVAISTNPETFEPISVPLVNIRETLKAALGAGILSEKEYEDILELAISTYYPDRSYLGLTKEGAKKGLISEEKRKLLLDFCINSEVDVKKRDAVLVIETVKRLVEETEV | not soluble
19 | MAHHHHHHMADRGDARVVHVFVDDLSAVLAEDVHEWLRIIGDIDELKMRYDASRQRSFYWVRFHQSSAARLAVDHLDGERLKNHAIEIHSNVFKKQTAAVATLEGAAGGVQEEKTKLEMNPNLPKNHLMPRDLQMDELLVRAIPEMLETSEQAAEGGELLQRLLELQESYCRAQESLERTTEGIRETDGELTALLRGETTAATDVSGPSSEGFVQGNTPLASARIRNAVPVPLSTCDPAGLLSKLTRHVGPVADYAFSFASNGGSFATVVELFHPDDADFALALLTGRRMVSKSTEKHADAEDALAALVGFGWEAEASVAPLTPPSVPQASFAAHNRVATILRSCRSVA | not soluble
20 | MDRFDAMQAFARVVDTGSFTKAAETLHMSRTSVTQLVQQLEARLRVRLLNRTTRKLNLTADGAAYYERVVRLLAELDDAETSLSSAALAPRGRLRIDVPSPLARLLLIPALPEFHARYPEIQIDLGVSDRLVDLIDENVDCVIRGGELRDQSLMARRVGDLQLGVYAAPAYLQRAGVPSHPRELEDSHQRIVGFLWARTGKALPYAMRRGEECLRVAGRHVLAVDDGNAYLAAGLAGLGILWLPHYMAREPLARGELLPLFEDWSLEPMPLYLAFPPNRHVSGKLRVFIEWVAELIARHAPPLHPPL | not soluble
21 | MLTLTAGKKAAMDRLSTQEGIISALAIDQRGALKKMIKALDVEPTDAQIETFKELVSKELTPYASAILLDPEYGLPAAKARDTEAGLLLAYEKTGYDATTPGRLPDLLADWSVLRLKEEGADAIKFLLYYDVDEDPEINHQKHVFIERLGSECAEEDLPFYLELVSYDAQIADATSLEYAKVKPHKVNEMMKEFSKPQYKVDVLKVEVPVNMNFVEGFAPAETAYTKEEAANYFLEQSQATDLPFIFLSAGVSTELFQETLRFAKEAGSTFNGVLCGRATWKNGVKPFVEAGETAACDWLKTEGRENIESLNEVIAATASSWHAKVQVNEG | not soluble
